# Results taken from the RNAGym collection of RNA variant scans (doi:10.1073/pnas.2313332121).
# B1: TPR t1 (parent)
# chain: GACCAAUCUGCCCUCAGAGCUCGAGAACAUCUUCGGAUGCAGAGGAGGCAGGCUUCGGUGGCGCGAUAGCGCCAACGUCCUCAACCUCCAAUGCAUCCCACCACAUGAUGAUGCCUGAAGAGCCUUGGUUUUUUG
# Variants of: B1
# Assay: polymerase ribozyme fitness, log enrichment relative to wild type (log ratio); higher = more active; in vitro selection for triplet polymerase activity
# Outline: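 Each subunit of a heterodimeric triplet polymerase ribozyme was represented by a PCR-built, transcribed mutant library that underwent triplicate single-round in vitro selection with frozen incubation at −7 °C. Extended constructs were recovered by gel excision, streptavidin-bead capture and RT-PCR, and Illumina sequencing of input and output libraries kept genotypes with ≥10 input reads and ≥1 read per output. Fitness is the logarithm of genotype enrichment relative to wild-type enrichment, from inverse-variance-weighted replicate averages, with a logarithm base of 2.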
row,Variant,polymerase ribozyme fitness (log ratio)
1,G36U G44A U59A G60A G77C U112C,0.0936
2,C115U A118C,-2.16
3,C20U G110C,-4.31
4,G10C C40G C56G G61A A68U G77U U112C,-6.74
5,C11G G63U C85U U87C G110A,-2.67
6,C15U A37G C53G U129C,-2.67
7,A18G G44U C86A C104U G120C,-3.98
8,A27C U81C C124A,-2.25
9,G51U C53U U112A A119G,-2.63
10,A90C A95G,-0.983
11,G47A A90G A103C G120C,-4.22
12,G45U G69A U78C U87G A111U,-6.45
13,C15U G36C A50C C72U C124G,-0.154
14,C13U C56U U106G C114G,-4.09
15,G48C U87G A95C,-3
16,G69A U106C,-3.42
17,A91G C101U,-1.08
18,A26G G110U,-2.66
19,G39A G60U,0.0117
20,C40G G57U G63C A91C,-3.66
21,C49A G71A,-0.646
22,C31A U54C G60U A121C,-5.42
23,U9C C99A C101U U132C,-6.34
24,U21A G42U G63C C82A,-3.34

row,Variant,polymerase ribozyme fitness (log ratio)
1,C8U A41C G58U C94G C104U U106A U112C,-3.18
2,G45A G71C,-1.76
3,C8G C82A,0.946
4,A18G C62U,-2.68
5,C3U C49U,-1.18
6,A27C G57C C85A G135U,-4.97
7,G23A G60A,-4.52
8,U7G G42C G45A G61C,-3.42
9,U9G U92A U96G U109A,-5.59
10,A24G C62A C89G G113C C115A A118C,-6.92
11,A5U C15A C62A G122A,-4.9
12,C85G C88A C101A,-2.28
13,G39U G71C U116G,-3.1
14,C13U C20U G61A U92C,-1.11
15,C15A C86A U129A,-4.12
16,C11A G45U C49U C70U U87A,-3.95
17,C49U G135U,-1.61
18,A43G A46U U55G,-2.46
19,G57U C88G,-1.99
20,C56U G60A C101U,-5.48
21,A37C A68G U78C C82U U133G,-3.87
22,A5G G58A G63A,-0.764
23,C49G C56A G71A G93C,-6.41
24,A6C A95G C102U C124G,-0.561

row,Variant,polymerase ribozyme fitness (log ratio)
1,A50U G63U C89U,-3.86
2,A68G G110C,-5.66
3,C49A G63U,-1.35
4,G61C C104U,-1.51
5,C72U C102A G120U,-2.07
6,G60U C89A A111C C114A,-4.37
7,A83C C102A,-2.03
8,U9A C72U,0.716
9,C15G G69U C102A,-1.71
10,U21A G52A A75U C115A C124A,1.07
11,G71U U109A,-4.43
12,G36U A74G A83U C101G,-3.95
13,C80A G113C,-5.5
14,C76G C88A C101A U130A,-1.71
15,A5C U125G,-0.516
16,C8G C11G A24G C40U C56U C94U,-2.88
17,C62A A105U,-3.07
18,G42A G135U,-2.72
19,C13U A41G C49G U87A,-0.587
20,C62U C73U U81G A84C G113A,-3.57
21,C79A C82G U112A,-1.75
22,A6C G63A,-0.611
23,U96A G120U,-0.867
24,C4U C8G G36U U38A G44U C73A C124A,-4.82

row,Variant,polymerase ribozyme fitness (log ratio)
1,U55A U81A,-0.637
2,U9A A46G C53G C72U C82A G113U,-1.9
3,C11A C98U U125A,-2.97
4,U54A C102U,-2.1
5,G10A C56U C94G,-0.664
6,A50U C62U A83U U133A,-1.52
7,A5G U59G G63U C73G A111C,-6
8,C20U C72A C102U U109A C114A U133G,-5.73
9,C49G C70U C85G A105U,-3.38
10,C22U C31G G63C C82A U87C U112A,-6.33
11,U14G U125A,-2.09
12,A5U A50U G61U C88G,-1
13,A2U A6C C76A C115U U126A U129C U130A U133A,-4.89
14,U14A C22A G61C G65A C101U G120C,-7.89
15,A5G C49G,-1.85
16,G35U G61A,-4.27
17,G52A G60A C79A C115A U132A,-0.536
18,G63U C123G,0.817
19,C3A C4G U7A U21A C40U G47U C114U,-3.96
20,A18G G36U C56G,-6.14
21,A37U C94U G117A,-2.17
22,U9G C56G,-0.492
23,C31U G48A,-5.2
24,C15A C97A G120A U130A,-4.97

row,Variant,polymerase ribozyme fitness (log ratio)
1,C11G A27G A29U C94U,-2.53
2,G17U G61A,-2.18
3,A16U C70A U116C U130G,-2.69
4,C12U C22A G39A C85A C102A,-7.04
5,A29G A37G G63A C88U A111C,-3.49
6,U55C A111U G117A,-6.33
7,U38A G52U C62U U78G A90G,-2.07
8,G48A C124G,0.442
9,A18U C73U U96G C104U,-2.93
10,C56G U109A,-4.28
11,A50C G69U,-0.0602
12,G60C,-0.366
13,C4U G10A U21A G44A A83U,-1.59
14,C3U G47U C53G U96G C104U A118G C124U,-1.09
15,A37U G57C G63A,-1.29
16,A41U C124A,0.11
17,G69A C101A,-3.72
18,C8A G51C C53A A66U C88A C114A,-6.04
19,G44A G110C,-4.8
20,G10U G42A G61C,-5.15
21,C8G C15U C22U,-4.73
22,A50U U92A,-5.22
23,A74G A83C C114A C123G C124G,-0.429
24,C13A A50G C62A,-3.49

row,Variant,polymerase ribozyme fitness (log ratio)
1,C8U G44A G69C C89U A118U C124G G127C,0.163
2,C8U C124G,2.32
3,G48U G60U A66C U78G A90G C123A U132A,-1.91
4,U55C A83C U116C,-2.32
5,G60A C76G,-2.57
6,C34A G120C,-1.97
7,G44A G47U,-2.36
8,G39A G113U,-2.43
9,G57U A84U G110A,-2.32
10,C12U C73U C97A G110U C115A C124G,-6.74
11,G61C U125A,-1.89
12,C3U G61U C80G,-5.52
13,A5U C53A C88A C98A U109A,-5.9
14,C20U C49U C62U G69A,-5.65
15,C82G G107A,-6.96
16,G19A C88U,-2.19
17,A66U C72G A95C G110U,-6.57
18,A74G A100U G128U,-3.08
19,C13U G36C A43U U112G G127U G128A,-5.23
20,C8A U55C C79G C94A,-3.64
21,A83G G127C,-1.88
22,C13G C15A A29G C64A C82A C104G U109G U131A,-5.2
23,G10U C73U,-0.579
24,G47C C70A U131G,-4.27

row,Variant,polymerase ribozyme fitness (log ratio)
1,C80U A105C U112G G120C,-3.27
2,U7G C22G G47C G60U A84U,-5.01
3,C12U A27C C49A G61A U106A C115U,-4.69
4,C12A G47A,-1.98
5,C12U C80U C102U,-2.35
6,C53A U55A G63A G71U G120C,-4.29
7,G51C G63U A84U U112G U132A,-5.83
8,A6G A41C C56A G93U G117C,-4.14
9,C28A G117A,-4.5
10,C99A G110A,-5.17
11,C8U C56G C64U C80A,-3.18
12,C13U G113U U125C,-1.89
13,A26U G71A C94U C123G U132C,-2.78
14,G63C C88A C94A,-2.47
15,G60A U78A C123U,0.832
16,U87G A91U,-1.46
17,C11U G47A G61U U78A,-0.709
18,C13U C73G,-0.465
19,C28G G52A C70U C80A G113C,-7.14
20,C56A C114A,-1.74
21,G47C G63U A90U,-5.15
22,C53U A74U U81C G120A,-1.15
23,U7G C8U C15U G17A A50G,-3.01
